Data as given in US20210062171A1, “NOVEL SIALIDASES AND USES THEREOF” (The Regents of the University of California, priority 2019, published 2021).
Entries after “also recorded” stand apart in the source; their conditions may differ.

Assays:
Type in all cases: biochemical
[1] = In vitro sialidase activity assay on mixed WT and Cmah−/− mouse serum (DMB derivatization, HPLC); details: purified enzyme 0.5-10 μg; pH 6.5, 7.0 and 8.0; 1 hour at 37° C.
Experimental: Bin13 sialidases were tested for Neu5Gc release. Each of the five sialidases genes in bin13 were PCR amplified (FIG. 12) and heterologously expressed in vitro, purified, and assayed for its substrate preference. Sialidase activity measurements were performed using different enzyme concentrations (0.5-10 μg) at three different pH levels (6.5, 7.0, and 8) (FIGS. 3A, 13). […] Additionally, we tested in vivo sialidase activity in fresh fecal samples. Clarified fecal pellets from mice fed with PSM tend to preferentially release Neu5Gc compared to clarified fecal pellets from mice fed with Soy (FIG. 3D).
Sialidases purified as described above were quantified using SDS-PAGE image analysis with BSA references (Bio-Rad) and absorbance using the Nanophotometer P330 (Implen), with extinction coefficients calculated using ExPASy Translate. […] The samples were kept at −20° C. until derivatization and analyzed by HPLC as described below. […] The DMB-derivatized samples were analyzed on a Dionex Ultra3000 HPLC System using a Phenomenex Gemini 5μ C18 250×4.6-mm HPLC column at room temperature, eluted in isocratic mode with 85% water, 7% methanol, 8% acetonitrile. […]

[2] = Sialidase activity on food sources (Neu5Gc release); details: 2 μg enzyme, 2 h at 37° C., Tris-HCl pH 7; beef, pork, PSM chow
From the text: Fecal shotgun metagenomes from the Hadza people (Table 4), a genetically distinct indigenous ethnic group that resides in remote Tanzania was reanalyzed. The Hadza are hunter-gatherers and change their diet periodically throughout the year according to food availability. In dry seasons, their diet is enriched in meat and tubers, whereas in wet seasons it consists largely of honey and berries. Raw reads from Hadza metagenomes were mapped to bin13. […] To evaluate the sialidases genes present in the Hadza microbiome, the combined metagenomes were co-assembled and 24 genome bins containing 51 sialidase genes were identified (FIG. 17, Table 5). The binHz19, whose closest relative was Alistipes sp., was equally abundant in microbiomes from both seasons (FIG. 2B, Table 5). […] This difference supports the notion that sialidaseHz136 is capable of metabolizing structurally diverse glycans, a concept that would be of benefit to an individual with seasonal variations in diet. To additionally determine if sialidase26 and sialidaseHz136 can release Neu5Gc from food sources directly, we test their activity on beef, pork, and PSM chow as substrate.
Beef (New York Steak) and pork (breakfast sausage) were purchased at Whole Foods Market and cut in small pieces using sterile blades. PSM chow was powdered using mortar and pestle. […]

[3] = Fluorogenic sialidase assay with 4MU-α-Neu5Gc; details: for Hydrolysis of 4MU-α-Neu5Gc: compost metagenomic fosmid clones in E. coli, fluorescence λex=365 nm, λem=445 nm; for Preference for Neu5Gc hydrolysis compared to known bacterial exo-sialidases: in vitro, 4MU-α-Neu5Gc versus 4MU-α-Neu5Ac, comparators Au, Cp, Mv, St, Vc sialidases
From the text: To determine if Neu5Gc-specific sialidases are restricted to enteric bacteria, we utilized functional metagenomic screening to identify exo-sialidases with a Neu5Gc specificity in a terrestrial environment. A fosmid library containing ˜40 kb inserts of total environmental DNA isolated from soil from an organic composting facility was constructed in E. coli Lysates from 5,376 clones were screened for hydrolysis of 4MU-α-Neu5Gc. During environmental DNA extraction 100, environmental samples 102 are collected and environmental DNA 104 is extracted. DNA extraction is followed by metagenomics library production 110 where fosmid vectors 112 are ligated with environmental DNA to produce plasmids 114 that are transfected into E. coli cells 116. During functional screening 120, one clone 122 is present per well in a well plate and hits 124 are selected by a means known in the art. Following functional screening 120, hits 132 are sequenced during a sequencing step 130 using any method for sequencing known in the art. Gene prediction and database comparison 140 is used to identify enzyme candidates 142; the enzyme candidates are expressed and characterized 150 in plasmids 152, which are transfected into E. coli and expressed as enzymes 154 for further characterization and/or use.
(§1) Following the enzyme selection process, clones showing activity were tested subsequently and re-tested for their ability to cleave 4MU-α-Neu5Ac. […] The DNA sequence of cloned inserts from C19 and C22 each encoded a single bacterial sialidase gene.
(§2) The compost metagenomic library (theoretically encoding ˜215,000 environmental genes) was differentially screened with fluorogenic 2′-(4-methylumbelliferyl)-α-D-N-glycolylneuraminic acid (4MU-α-Neu5Gc) (Sussex Research, Ottawa, CA) and 2′-(4-methylumbelliferyl)-α-D-N-acetyineuraminic acid 4MU-α-Neu5Ac (Toronto Research Chemicals, Toronto, CA) substrates. In a primary screen, library clones were grown in 384-well plates containing 50 μL LB liquid cultures (10 g tryptone. 5 g yeast extract, 10 g NaCl, 1 g dextrose, 1 g MgCl2-6H2O, 2 mL of 2M NaOH per liter, containing chloramphenicol 12.5 μg/mL and 1× inducing solution (Lucigen Corporation)) overnight at 37° C. Fifty microliters of Y-per lysis buffer (Thermo Fischer Scientific, Waltham, Mass.) containing 40 μg/mL of 4MU-α-Neu5Gc was added to each well. The mixtures were incubated overnight at 37° C. in a static incubator. Fluorescence at λex=365 nm and λem=445 nm was read with a SpectraMax Plus 384 Microplate Reader (Molecular Devices, Sunnyvale, Calif.) at 6 h, 24 h and 48 h. Positive clones were defined as those showing fluorescence greater than 3 standard deviations above the mean background, and each was re-archived in a fresh 384-well plate in sterile 20% (v/v) glycerol. […]

[4] = Fluorogenic sialidase assay with 4MU-α-Neu5Ac; details: compost metagenomic fosmid clones in E. coli, fluorescence λex=365 nm, λem=445 nm
Experimental: as §1
as §2, with “Fifty microliters of Y-per lysis buffer (Thermo Fischer Scientific, Waltham, Mass.) containing 40 μg/mL of 4MU-α-Neu5Gc was added to each well. The mixtures were incubated overnight at 37° C. in a static incubator.” left out

Molecule	Substrate preference, Neu5Gc versus Neu5Ac release [1]	Release of Neu5Gc from food [2]	Hydrolysis of 4MU-α-Neu5Gc [3]	Preference for Neu5Gc hydrolysis compared to known bacterial exo-sialidases [3]	Activity on 4MU-α-Neu5Ac [4]
sialidase26: Bin13 GH33 sialidase from mouse gut metagenome, SEQ ID NO. 4, PDB 6MRX (protein, Environmental sample, 4, PDB 6MRX) MKKNLFLSIIFSFCVILQAFASDTVFVRETQIPVLIERQDNVLFMLRLNAKESHTLDEVVLNFGKDVNMSDIQSVKLYYSGTEARQNYGKNFFAPVSYISSHTPGKTLAANPSYSINKSQVNNPKRKVALKANQKLFPGINYFWISLQMKPDASLLDKVAAKIAAIKVDNKEALMHTVSPENIVHRVGVGVRHAGDDGSASFRIPGLVTTNKGTLLGVYDVRYNNSADLQEHVDIGLSRSVDGGKTWEKMRLPLAFGETGDLPAAQNGVGDPSILVDTKTNTVWVVAAWTHGMGNQRAWWSSYPGMDMNHTAQLVLSKSTDDGKTWSKPINITEQVKDPSWYFLLQGPGRGITMQDGTLVFPIQFIDSTRVPNAGIMYSKDRGETWKIHNYARTNTTEAQVAEVEPGVLMLNMRDNRGGSRAISTTKDLGKTWTEHSSSRKALQEPVCMASLISVKAKDNVLNKDILLFSNPNTVKGRHHITIKASLDGGVTWLPEHQVMLDEGEGWGYSCLTMIDKETIGILYESSVAHMTFQAVQLRDIIK	preference for Neu5Gc	pronounced sialidase activity by releasing Neu5Gc from all food tested			
C19: GH33 exo-sialidase from compost soil metagenomic fosmid clone C19, SEQ ID NO. 7 (protein, Environmental sample) MKRTGWLLLLVSGPALCQPPRGYSIPLIDLAAEAWRQTVVDREPGQYLGHPTTVLLEDGRTVLAVYPKGHGRGAIVYKRSRDGGRTWSARLPVPENWATSQETPTIHRVVDPRGRKRLILFSGLYPIRMSVSEDDGETWTPLAPIGNFGGVVAMASVERLRDGRYMALFHDDGRFLRGGGKPDRFVVYKTLSGDGGLTWSEPVPILSHPQAHLCEPGLLRSPDGRRIAILLRENSRKFNSFVSFSDDEGETWSEPRELPGALTGDRHTAVYARDGRLFISFRDTTHESPTRGDWVAWVGRFGDIENGREGQYRVRLMKNHKDLDCCYPGVLRLPDDTILTTTYGHWTPGEPPYIVSIRLRLSELDRRAQGAGR			significant hydrolysis; also recorded: significant activity	marked preference for Neu5Gc hydrolysis	only minor activity
sialidaseHz136: Sialidase from binHz19 of Hadza shotgun metagenome, SEQ ID NO. 6, PDB 6MNJ (protein, Environmental sample, 6, PDB 6MNJ) MMKRTFWLIALSLLSLTLSASDSLRIHNPQIPILLDRMDNVLFLIRVPDAVQGNVLESLTVEFGPDTDLNSIAELRLFYSGTEAVRRQGLRFSPVEYISAHNVWNTRSANPSYSVMQEQASKIGRKVVLHSRQPMVGGINYYWVSVRMNPDASLLTELRARVSEVVVNGKKIPVACDSREVVRRMGYGVRHAGDDHSMAYRIPGLVTTNSGSLIGTYDVRWNSSVDLQERIDIGVSRSTDKGQTWEPMRIAMSFADIDGLPSGQNGVGDPAVLVDEKTGTIWVMAAWTHGMGNGRAWTNSMPGMEPMETPQLMLARSDDDGRTWSEPINITKQVKDPSWCFLLQGPGRGITMRDGTLVFAIQFIDKDRMPHAGIIFSKDHGETWHIHNPARSNTTEAQVAEVEPGVLMLNMRDNRGGARAVMTTRDLGRTWTEHVSHRTTLREPVCMASLIAVPAEKNVLGKDLLLFSNPDTTDGRRDITIKASLDGGVTWPYSLLLDEGDSWGYSCLTMIDSQTVGILYESSVAHITFQAAKLKAIVK	preferential activity for Neu5Gc over Neu5Ac in all tested conditions	pronounced sialidase activity by releasing Neu5Gc from all food tested			
C22: GH33 exo-sialidase from compost soil metagenomic fosmid clone C22, SEQ ID NO. 8 (protein, Environmental sample) MVIAWMAGVQCTAAALVDLGVTILDISGEPERQVIVDREPGQYLGHVSTVLLEDDKTILAVYPKGHGRGAIVLKRSEDGGRTWSGRLPVPASWATSKETPTIHRVVDARGRRRLLLWSGLYPARRALSDDDGRTWTELEPVGEWGGIVVMGFVEATRQPGHYVAMFHDDGRYFAAQPSTNRSMTLYLTRSSDGGVSWSSPVAVWSNSAVHLCEPGGIWSPDRRRLAVLLRENRRVNNSHIMFSDDEGHTWTTPVEMPLSRAGDRHTLRYTPDGRIVCVFRAVTPVGMRGRSFGQNEDVDTLGVGSPFEGDCVAWVGTWDDLVHNRPGQYYVRLLNNRKGWDTTYPGVEVLPDGTVVVTTYGHWNAGEPPYIRSVRFRLEELDRMAAKASQKP			significant hydrolysis; also recorded: significant activity	marked preference for Neu5Gc hydrolysis	only minor activity
